From patent publication US20250312499A1, “KISSPEPTIN RECEPTOR (KISS1R) TARGETED THERAPEUTICS AND USES THEREOF” (priority 2024, published 2025)
Numbered stars: 1 amine (or outer) side, 2 acyl side, 3 side chain; on linkers, the order of the positions; unused ones are H or OH. Square brackets hold non-standard residues; d marks the D form. * marks the point of attachment. X2 = 4‑amino‑1‑((3-fluoro-4-methylbenzyl)glycyl)piperidine‑4‑carboxylic acid, Cc1ccc(CN(CC(=O)N2CCC(N[*:1])(C(=O)[*:2])CC2)[*:3])cc1F; X10 = 3‑(2-(2-(3-(4-iodophenyl)propanamido)ethoxy)ethoxy)propanoyl, O=C(CCc1ccc(I)cc1)NCCOCCOCCC(=O)*; X6 = 3‑(2-(2-(3-(p-tolyl)propanamido)ethoxy)ethoxy)propanoyl, Cc1ccc(CCC(=O)NCCOCCOCCC(=O)*)cc1; DOTA = O=C(O)CN1CCN(CC(=O)O)CCN(CC(=O)*)CCN(CC(=O)O)CC1; Butanoyl(4-(4-I-phenyl)) = O=C(CCCc1ccc(I)cc1)*; Api(1-amidino) = N=C(N)N1CCC(N)(C(=O)O)CC1; d(γGlu) = O=C(O)[C@@H](CCC(=O)[*:2])N[*:1]; Phe(4-CN) = N#Cc1ccc(C[C@H](N)C(=O)O)cc1; d2Nal = N[C@H](Cc1ccc2ccccc2c1)C(=O)O; Palmitoyl = CCCCCCCCCCCCCCCC(=O)*; Cha = N[C@@H](CC1CCCCC1)C(=O)O; Lauroyl = CCCCCCCCCCCC(=O)*; Octanoyl = CCCCCCCC(=O)*; Ahx = NCCCCCC(=O)O; azaGly = NNC(=O)O

B1: Compound 302 (peptide)
peptide: {DOTA}-[d2Nal]NTF[azaGly]L[Api(1-amidino)]F-NH2
SMILES: CC(C)C[C@H](NC(=O)NNC(=O)[C@H](Cc1ccccc1)NC(=O)[C@@H](NC(=O)[C@H](CC(N)=O)NC(=O)[C@@H](Cc1ccc2ccccc2c1)NC(=O)CN1CCN(CC(=O)O)CCN(CC(=O)O)CCN(CC(=O)O)CC1)[C@@H](C)O)C(=O)NC1(C(=O)N[C@@H](Cc2ccccc2)C(N)=O)CCN(C(=N)N)CC1
B2: Compound 305 (peptide)
peptide: {DOTA}-GY[Ahx]F[azaGly]L[X2]W-NH2
SMILES: Cc1ccc(CNCC(=O)N2CCC(NC(=O)[C@H](CC(C)C)NC(=O)NNC(=O)[C@H](Cc3ccccc3)NC(=O)CCCCCNC(=O)[C@H](Cc3ccc(O)cc3)NC(=O)CNC(=O)CN3CCN(CC(=O)O)CCN(CC(=O)O)CCN(CC(=O)O)CC3)(C(=O)N[C@@H](Cc3c[nH]c4ccccc34)C(N)=O)CC2)cc1F
B3: Compound 320 (peptide)
peptide: {3‑(4-iodophenyl)propanoyl}-[d(γGlu)][dY]K(DOTA)NTF[azaGly]L[Api(1-amidino)]W-NH2
B4: Compound 321 (peptide)
peptide: {3‑(4-iodophenyl)propanoyl}-[dY]K(DOTA)NTF[azaGly]L[Api(1-amidino)]W-NH2
B5: Compound 322 (peptide)
peptide: X6-[dY]K(DOTA)NTF[azaGly]L[Api(1-amidino)]F-NH2
SMILES: Cc1ccc(CCC(=O)NCCOCCOCCC(=O)N[C@H](Cc2ccc(O)cc2)C(=O)N[C@@H](CCCCNC(=O)CN2CCN(CC(=O)O)CCN(CC(=O)O)CCN(CC(=O)O)CC2)C(=O)N[C@@H](CC(N)=O)C(=O)N[C@H](C(=O)N[C@@H](Cc2ccccc2)C(=O)NNC(=O)N[C@@H](CC(C)C)C(=O)NC2(C(=O)N[C@@H](Cc3ccccc3)C(N)=O)CCN(C(=N)N)CC2)[C@@H](C)O)cc1
B6: Compound 323 (peptide)
peptide: X10-[dY]K(DOTA)NTF[azaGly]L[Api(1-amidino)]F-NH2
SMILES: CC(C)C[C@H](NC(=O)NNC(=O)[C@H](Cc1ccccc1)NC(=O)[C@@H](NC(=O)[C@H](CC(N)=O)NC(=O)[C@H](CCCCNC(=O)CN1CCN(CC(=O)O)CCN(CC(=O)O)CCN(CC(=O)O)CC1)NC(=O)[C@@H](Cc1ccc(O)cc1)NC(=O)CCOCCOCCNC(=O)CCc1ccc(I)cc1)[C@@H](C)O)C(=O)NC1(C(=O)N[C@@H](Cc2ccccc2)C(N)=O)CCN(C(=N)N)CC1
B7: Compound 324 (peptide)
peptide: X10-[dY]K(DOTA)NTF[azaGly]L[Api(1-amidino)]Y-NH2
SMILES: CC(C)C[C@H](NC(=O)NNC(=O)[C@H](Cc1ccccc1)NC(=O)[C@@H](NC(=O)[C@H](CC(N)=O)NC(=O)[C@H](CCCCNC(=O)CN1CCN(CC(=O)O)CCN(CC(=O)O)CCN(CC(=O)O)CC1)NC(=O)[C@@H](Cc1ccc(O)cc1)NC(=O)CCOCCOCCNC(=O)CCc1ccc(I)cc1)[C@@H](C)O)C(=O)NC1(C(=O)N[C@@H](Cc2ccc(O)cc2)C(N)=O)CCN(C(=N)N)CC1
B8: Compound 325 (peptide)
peptide: X10-[dY]K(DOTA)NTF[azaGly]L[Api(1-amidino)][Phe(4-CN)]-NH2
SMILES: CC(C)C[C@H](NC(=O)NNC(=O)[C@H](Cc1ccccc1)NC(=O)[C@@H](NC(=O)[C@H](CC(N)=O)NC(=O)[C@H](CCCCNC(=O)CN1CCN(CC(=O)O)CCN(CC(=O)O)CCN(CC(=O)O)CC1)NC(=O)[C@@H](Cc1ccc(O)cc1)NC(=O)CCOCCOCCNC(=O)CCc1ccc(I)cc1)[C@@H](C)O)C(=O)NC1(C(=O)N[C@@H](Cc2ccc(C#N)cc2)C(N)=O)CCN(C(=N)N)CC1
B9: Compound 326 (peptide)
peptide: X6-[dY]K(DOTA)NT[Cha][azaGly]L[Api(1-amidino)]W-NH2
SMILES: Cc1ccc(CCC(=O)NCCOCCOCCC(=O)N[C@H](Cc2ccc(O)cc2)C(=O)N[C@@H](CCCCNC(=O)CN2CCN(CC(=O)O)CCN(CC(=O)O)CCN(CC(=O)O)CC2)C(=O)N[C@@H](CC(N)=O)C(=O)N[C@H](C(=O)N[C@@H](CC2CCCCC2)C(=O)NNC(=O)N[C@@H](CC(C)C)C(=O)NC2(C(=O)N[C@@H](Cc3c[nH]c4ccccc34)C(N)=O)CCN(C(=N)N)CC2)[C@@H](C)O)cc1
B10: Compound 327 (peptide)
peptide: X10-[dY]K(DOTA)NT[Cha][azaGly]L[Api(1-amidino)]W-NH2
SMILES: CC(C)C[C@H](NC(=O)NNC(=O)[C@H](CC1CCCCC1)NC(=O)[C@@H](NC(=O)[C@H](CC(N)=O)NC(=O)[C@H](CCCCNC(=O)CN1CCN(CC(=O)O)CCN(CC(=O)O)CCN(CC(=O)O)CC1)NC(=O)[C@@H](Cc1ccc(O)cc1)NC(=O)CCOCCOCCNC(=O)CCc1ccc(I)cc1)[C@@H](C)O)C(=O)NC1(C(=O)N[C@@H](Cc2c[nH]c3ccccc23)C(N)=O)CCN(C(=N)N)CC1
B11: Compound 328 (peptide)
peptide: Palmitoyl-[dY]K(DOTA)NTF[azaGly]L[Api(1-amidino)]W-NH2
SMILES: CCCCCCCCCCCCCCCC(=O)N[C@H](Cc1ccc(O)cc1)C(=O)N[C@@H](CCCCNC(=O)CN1CCN(CC(=O)O)CCN(CC(=O)O)CCN(CC(=O)O)CC1)C(=O)N[C@@H](CC(N)=O)C(=O)N[C@H](C(=O)N[C@@H](Cc1ccccc1)C(=O)NNC(=O)N[C@@H](CC(C)C)C(=O)NC1(C(=O)N[C@@H](Cc2c[nH]c3ccccc23)C(N)=O)CCN(C(=N)N)CC1)[C@@H](C)O
B12: Compound 329 (peptide)
peptide: Lauroyl-[dY]K(DOTA)NTF[azaGly]L[Api(1-amidino)]W-NH2
SMILES: CCCCCCCCCCCC(=O)N[C@H](Cc1ccc(O)cc1)C(=O)N[C@@H](CCCCNC(=O)CN1CCN(CC(=O)O)CCN(CC(=O)O)CCN(CC(=O)O)CC1)C(=O)N[C@@H](CC(N)=O)C(=O)N[C@H](C(=O)N[C@@H](Cc1ccccc1)C(=O)NNC(=O)N[C@@H](CC(C)C)C(=O)NC1(C(=O)N[C@@H](Cc2c[nH]c3ccccc23)C(N)=O)CCN(C(=N)N)CC1)[C@@H](C)O
B13: Compound 330 (peptide)
peptide: Palmitoyl-[dY]K(DOTA)NTF[azaGly]L[Api(1-amidino)]Y-NH2
SMILES: CCCCCCCCCCCCCCCC(=O)N[C@H](Cc1ccc(O)cc1)C(=O)N[C@@H](CCCCNC(=O)CN1CCN(CC(=O)O)CCN(CC(=O)O)CCN(CC(=O)O)CC1)C(=O)N[C@@H](CC(N)=O)C(=O)N[C@H](C(=O)N[C@@H](Cc1ccccc1)C(=O)NNC(=O)N[C@@H](CC(C)C)C(=O)NC1(C(=O)N[C@@H](Cc2ccc(O)cc2)C(N)=O)CCN(C(=N)N)CC1)[C@@H](C)O
B14: Compound 331 (peptide)
peptide: Lauroyl-[dY]K(DOTA)NTF[azaGly]L[Api(1-amidino)]Y-NH2
SMILES: CCCCCCCCCCCC(=O)N[C@H](Cc1ccc(O)cc1)C(=O)N[C@@H](CCCCNC(=O)CN1CCN(CC(=O)O)CCN(CC(=O)O)CCN(CC(=O)O)CC1)C(=O)N[C@@H](CC(N)=O)C(=O)N[C@H](C(=O)N[C@@H](Cc1ccccc1)C(=O)NNC(=O)N[C@@H](CC(C)C)C(=O)NC1(C(=O)N[C@@H](Cc2ccc(O)cc2)C(N)=O)CCN(C(=N)N)CC1)[C@@H](C)O
B15: Compound 332 (peptide)
peptide: Octanoyl-[dY]K(DOTA)NTF[azaGly]L[Api(1-amidino)]Y-NH2
SMILES: CCCCCCCC(=O)N[C@H](Cc1ccc(O)cc1)C(=O)N[C@@H](CCCCNC(=O)CN1CCN(CC(=O)O)CCN(CC(=O)O)CCN(CC(=O)O)CC1)C(=O)N[C@@H](CC(N)=O)C(=O)N[C@H](C(=O)N[C@@H](Cc1ccccc1)C(=O)NNC(=O)N[C@@H](CC(C)C)C(=O)NC1(C(=O)N[C@@H](Cc2ccc(O)cc2)C(N)=O)CCN(C(=N)N)CC1)[C@@H](C)O
B16: Compound 333 (peptide)
peptide: X6-[dY]K(DOTA)NTF[azaGly]L[Api(1-amidino)][Phe(4-CN)]-NH2
SMILES: Cc1ccc(CCC(=O)NCCOCCOCCC(=O)N[C@H](Cc2ccc(O)cc2)C(=O)N[C@@H](CCCCNC(=O)CN2CCN(CC(=O)O)CCN(CC(=O)O)CCN(CC(=O)O)CC2)C(=O)N[C@@H](CC(N)=O)C(=O)N[C@H](C(=O)N[C@@H](Cc2ccccc2)C(=O)NNC(=O)N[C@@H](CC(C)C)C(=O)NC2(C(=O)N[C@@H](Cc3ccc(C#N)cc3)C(N)=O)CCN(C(=N)N)CC2)[C@@H](C)O)cc1
B17: Compound 334 (peptide)
peptide: X10-[dY][dK](DOTA)NTF[azaGly]L[Api(1-amidino)]W-NH2
SMILES: CC(C)C[C@H](NC(=O)NNC(=O)[C@H](Cc1ccccc1)NC(=O)[C@@H](NC(=O)[C@H](CC(N)=O)NC(=O)[C@@H](CCCCNC(=O)CN1CCN(CC(=O)O)CCN(CC(=O)O)CCN(CC(=O)O)CC1)NC(=O)[C@@H](Cc1ccc(O)cc1)NC(=O)CCOCCOCCNC(=O)CCc1ccc(I)cc1)[C@@H](C)O)C(=O)NC1(C(=O)N[C@@H](Cc2c[nH]c3ccccc23)C(N)=O)CCN(C(=N)N)CC1
B18: Compound 335 (peptide)
peptide: {DOTA-Ahx}-[dK](4‑(p-tolyl)butanoyl)[dY][d2Nal]NTF[azaGly]L[Api(1-amidino)]W-NH2
B19: Compound 336 (peptide)
peptide: {DOTA-Ahx}-[dK](Butanoyl(4-(4-I-phenyl)))[dY][d2Nal]NTF[azaGly]L[Api(1-amidino)]W-NH2
SMILES: CC(C)C[C@H](NC(=O)NNC(=O)[C@H](Cc1ccccc1)NC(=O)[C@@H](NC(=O)[C@H](CC(N)=O)NC(=O)[C@@H](Cc1ccc2ccccc2c1)NC(=O)[C@@H](Cc1ccc(O)cc1)NC(=O)[C@@H](CCCCNC(=O)CCCc1ccc(I)cc1)NC(=O)CCCCCNC(=O)CN1CCN(CC(=O)O)CCN(CC(=O)O)CCN(CC(=O)O)CC1)[C@@H](C)O)C(=O)NC1(C(=O)N[C@@H](Cc2c[nH]c3ccccc23)C(N)=O)CCN(C(=N)N)CC1

biological target: human kisspeptin receptor (KISS1R) (human), Q969F8; assay: radioligand competition, hKISS1R membranes; legend: A is <10 nM
Sequence (Q969F8 whole entry): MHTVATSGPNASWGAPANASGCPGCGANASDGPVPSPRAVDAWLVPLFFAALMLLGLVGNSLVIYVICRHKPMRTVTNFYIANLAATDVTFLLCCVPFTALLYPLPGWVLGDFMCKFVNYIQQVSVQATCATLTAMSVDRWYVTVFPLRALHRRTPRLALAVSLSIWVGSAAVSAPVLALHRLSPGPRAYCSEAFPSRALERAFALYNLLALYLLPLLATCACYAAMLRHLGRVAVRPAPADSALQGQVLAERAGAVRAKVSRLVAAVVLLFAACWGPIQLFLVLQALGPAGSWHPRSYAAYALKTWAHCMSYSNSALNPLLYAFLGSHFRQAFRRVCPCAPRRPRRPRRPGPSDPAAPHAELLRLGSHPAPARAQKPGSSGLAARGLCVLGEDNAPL

Ki, < 10 nM:
B1
B2
B3
B4
B5
B6
B7
B8
B9
B10
B11
B12
B13
B14
B15
B16
B17
B18
B19
